The experiment deals with soluble G614 HexaPro spike ectodomain (SARS-CoV-2, UniProt P0DTC2 14-1208).

Changes are numbered by the printed parent chain.

B1: AB-1 full-length IgG1 (antibody, V domains shown)
VH: EVQLEESGTVLARPGASVKMSCKASGYTFTTYWMHWIKQRPGQGLEWIGAIYPGNSDTQYNQKFKDKAKLTAVKSTSSAYMELSSLTNEDSAVYFCTREGIPQLLRTLDYWGQGTSVTVSS
VL: DILMTQSPSSLSASLGERVSLTCRASQEISGYLSWLQEKPDGTIKRLIYAASTLDSGVPKRFSGSRSGSDYSLTISSLESEDFADYYCLQYLSYPWTFGGGTKLEIK
In the case of B1, the Kd (as a rule, the constant that tells how readily two partners part at equilibrium) was 0.389 nM.

B2: AB-2 full-length IgG1 (antibody, V domains shown)
VH: B1 VH with S56G, Q59N
VL: B1 VL
The molecule B2 displayed a Kd of 1.69 nM.

B3: AB-6 full-length IgG1 (antibody, V domains shown)
VH: B1 VH with T31S, Q59N, L105T
VL: B1 VL
Molecule B3 registered a Kd of 0.628 nM.

B4: AB-4 full-length IgG1 (antibody, V domains shown)
VH: B1 VH with S56G, Q59N, L108F
VL: B1 VL with S30G
B4 displayed a Kd of 1.14 nM.

B5: AB-3 full-length IgG1 (antibody, V domains shown)
VH: B1 VH with S56G, Q59N, L104K, Y110V
VL: B1 VL
For the molecule B5, the affinity, expressed as Kd, was 2.07 nM.

B6: AB-7 full-length IgG1 (antibody, V domains shown)
VH: B1 VH with T31S, Q59N, T107S
VL: B1 VL
Take B6: binding was put at a Kd of 2.55 nM.

B7: AB-9 full-length IgG1 (antibody, V domains shown)
VH: B1 VH with T31S, Q59N, K74T
VL: B1 VL
The molecule B7 registered a Kd of 1.2 nM.

B8: AB-5 full-length IgG1 (antibody, V domains shown)
VH: B1 VH with T31S, S56G, Q59N, R106N, Y110V
VL: B1 VL with L89Q
In turn, B8 gave a Kd of 2.09 nM.

B9: AB-8 full-length IgG1 (antibody, V domains shown)
VH: B1 VH with Q59I
VL: B1 VL
The molecule B9 yielded a Kd of 1.73 nM.

These data come from US12473560 (FLAGSHIP PIONEERING INNOVATIONS VI, dated 2025).
